Experimental data published in patent US20060252118.

Columns and labels:
[1] = biological target: T1, Peptide 1 (phosphoserine peptide) H-Val-Pro-Ile-Pro-Gly-Arg-Phe-Asp-Arg-Arg-Val-pSer-Val-Ala-Ala-Glu-NH2
T1 chain: VPIPGRFDRRVSVAAE

[2] = biological target: T2, Peptide 2 (phosphothreonine peptide) H-Thr-Ala-Asp-Ser-Gln-His-Ser-pThr-Pro-Pro-Lys-Lys-Lys-Arg-Lys-Val-Glu-OH
T2 chain: TADSQHSTPPKKKRKVE

[3] = biological target: T3, Peptide 3 (phosphotyrosine peptide) H-Glu-Trp-Met-Arg-Glu-Asn-Ala-Glu-pTyr-Leu-Arg-Val-Ala-OH
T3 chain: EWMRENAEYLRVA

[4] = biological target: Tyrosine (Tyr) phosphorylated Myelin Basic Protein substrate (33P labeled)
[5] = biological target: Serine/threonine (Ser/Thr) phosphorylated Myelin Basic Protein substrate (33P labeled)
Sequence of Serine/threonine (Ser/Thr) phosphorylated Myelin Basic Protein substrate (33P labeled) (P02687 whole entry): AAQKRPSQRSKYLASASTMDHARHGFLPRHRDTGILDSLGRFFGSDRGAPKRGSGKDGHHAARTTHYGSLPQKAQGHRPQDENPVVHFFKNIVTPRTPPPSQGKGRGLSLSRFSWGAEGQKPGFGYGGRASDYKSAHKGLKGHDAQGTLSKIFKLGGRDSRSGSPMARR

Sequence of Tyrosine (Tyr) phosphorylated Myelin Basic Protein substrate (33P labeled) (P02687 whole entry): as above

B1: thermolabile Antarctic phosphatase (TAP), truncated, with N-terminal His-tag (expressed from pEGTAP7.4.1) (protein)
chain: MHHHHHHMKLKKIVFTLIALGLFSCKTTSVLVKNEPQLKTPKNVILLISDGAGLSQISSTFYFKEGTPNYTQFKNIGLIKTSSSREDVTDSASGATAFSCGIKTYNAAIGVADDSTAVKSIVEIAALNNIKTGVVATSSITHATPASFYAHALNRGLEEEIAMDMTESDLDFFAGGGLNYFTKRKDKKDVLAILKGNQFTINTTGLTDFSSIASNRKMGFLLADEAMPTMEKGRGNFLSAATDLAIQFLSKDNSAFFIMSEGSQIDWGGHANNASYLISEINDFDDAIGTALAFAKKDGNTLVIVTSDHETGGFTLAAKKNKREDGSEYSDYTEIGPTFSTGGHSATLIPVFAYGPGSEEFIGIYENNEIFHKILKVTKWNQ
[1]
  units of TAP required to completely remove the phosphates from 5 µg of the peptide in 10 mins (Cap-HPLC): 2.5 units and 10 units of TAP were required to completely remove the phosphates from the phospho-serine and phospho-threonine peptides respectively
[2]
  units of TAP required to completely remove the phosphates from 5 µg of the peptide in 10 mins (Cap-HPLC): 2.5 units and 10 units of TAP were required to completely remove the phosphates from the phospho-serine and phospho-threonine peptides respectively
[3]
  units of enzyme required to remove all the phosphates from 5 µg of the peptide in 10 mins (Cap-HPLC): only 0.02 units of enzyme being required to remove all the phosphates from 5 µg of the peptide in 10 mins
[4]
  specific activity (release of 33P from phosphorylated MyBP, TCA-soluble counts): also greater than the specific activity for CIAP
[5]
  specific activity (release of 33P from phosphorylated MyBP, TCA-soluble counts): 1910 nmol/min/mg
